{"source": "paper PMC6927192", "about": "“Comparative phosphorylation map of Dishevelled 3 links phospho-signatures to biological outputs” (Cell Communication and Signaling : CCS, 2019)", "binders": {"B1": {"name": "DVL3_C peptide 698–716 with phosphorylated S700 (peptide, UniProt Q92997 698-716, looked up)", "peptide": "RQ[pS]FRMAMGNPSEFFVDVM", "notes": "Dishevelled 3 (DVL3), human, C-terminal residues 698-716; also called DVL3 C-terminal peptide; source: bought: KareBay Biochem, Inc. (New Jersey, USA)"}}, "target": "T1, Human DVL2 PDZ domain (aa 265–361) (human, UniProt O14641 265-361)", "T1 construct": "Dishevelled 2 (DVL2), human, PDZ domain, residues 265-361; 15N-labelled for the NMR titration; The pET construct has a TEV cleavage site after the tags; also called wt PDZ; wildtype PDZ; source: E. coli BL21-DE3(RIL), purified", "T1 sequence (looked up)": "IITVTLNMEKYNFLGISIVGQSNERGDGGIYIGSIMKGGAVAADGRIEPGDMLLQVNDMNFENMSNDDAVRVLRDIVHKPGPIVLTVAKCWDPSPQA", "assay": "NMR titration; series of 1H-15N HSQC spectra, 100 μM 15N-labeled PDZ (wild type or phosphomimicking mutant) with increasing amounts of DVL_C peptide (stock 800 μM); proteins stored in 20 mM Hepes (pH 6.8), 50 mM KCl; 700 MHz; qualitative analysis", "details": "both partners purified", "note": "Square brackets hold non-standard residues; d marks the D form. Ends that are not written are not given here. pS = N[C@@H](COP(=O)(O)O)C(=O)O"}
{"binder": "B1", "values": [{"measurement": "binding result", "result": "binds"}]}
